Target: wildtype (WT) human interleukin-1β (human) (UniProt P01584)
Assay: ELISA; antigen (100 ng) coated on the plate; scFv-mFc added in 3% skim milk in DPBST, 2 h at 37 °C; EC50

B1: E64Kcr-H11-mFc (Fc fusion)
VH: EVQLQQSGAELVKPGASVRLSCTASGFNIKDYYMHWVKQRPEQGLEWIGWIDPENGDTEYAPKFQGKATMTADTSSNTAYLQLSSLTSEDTAVYYCNGYDDYWGQGTTLTVSS
VL: DIVMTQSQKFMSTSVGDRVSVTCKASQNVGTDVAWYQQKPGQSPKALIYSASYHYSGVPDRFTGTGSGTDFTLTISNVRSEDLAEYFCQQYNSYPYTFGGGTKLEIK
  EC50: 17.4 nM

From PMC10311653
